Reference: patent US6833248B2, “Human caspase-12 materials and methods” (Pharmacia & Upjohn Company, priority 2000, dated 2004)

Tests used:
[1] = test system: endogenous human caspase-12; test: Induction of endogenous caspase-12 protein by ER stress-inducing agents in SH-EP cells (Western blot); format: cell-based; conditions: SH-EP cells, 1 μg/ml tunicamycin, harvested over time
Experimental: Reports in the literature indicated a strong activation of murine caspase-12 in response to agents which induce an endoplasmic reticulum (ER) stress response, such as tunicamycin or the Ca^2+ ionophore A23187. The activation of endogenous human caspase-12 by these ER stress-inducing agents in SH-EP and HEK293 cells was evaluated by Western blot analysis of cell lysates. SH-EP is a neuroblastoma cell line that endogenously expresses human caspase-12 at detectable levels. HEK293 is a transformed kidney cell line that lacks detectable caspase-12.
(§1) Cell cultures were treated with 1 μg/ml tunicamycin or 2 μM A23187 (Calbiochem) and harvested over time. Cells were lysed in detergent buffer, cellular proteins resolved on NuPAGE gels and subjected to Western blot analysis using the same antibody as in Example 8A above. […] (BACHEM) for 40 hours.
The biological significance of caspase-12 up-regulation by the ER stress-inducing agent A23187 in apoptosis was further investigated. SH-EP cells were treated with 2 μM A23187 for 40 hours to induce expression of endogenous caspase-12. One control culture was left untreated. Of the four cultures treated with A23187, one culture received 10 μg/ml cycloheximide (CHX) to block new protein synthesis and two cultures were subjected to an apoptotic stimulus, either 250 ng/ml α-Fas antibody for 24 hours or 1200 microjoules UV irradiation. The cultures were harvested after 6.5 hours. Western blot analysis of caspase-12 expression and activation was done as described above in Example 8A, using similar protein loads for each condition tested.

GRP 78 = test: Induction of GRP 78 in cell cultures (control Western blot); format: cell-based; conditions: tunicamycin treatment
Experimental: as §1

DEVD-R110 = test: Homogeneous Caspase Assay, fluorimetric, release of rhodamine-110 from DEVD-R110; format: biochemical; conditions: partially purified protein preparation; two-hour incubation of DEVD-R110 substrate
From the text: The enzymatic activity of the partially purified hCaspase-12 and ΔCARD proteins was further evaluated in a fluorimetric assay allowing quantitation. The caspase activity of partially purified hCaspase-12 and ΔCARD protein preparations was compared to a control (non-caspase protein) preparation, using the Homogeneous Caspase Assay (Roche Biochemicals) according to the manufacturer's protocol. The assay measures the amount of free rhodamine-110, following its release from the substrate DEVD-R110, a caspase recognition sequence. Following a two-hour incubation of DEVD-R110 substrate with dilutions of the various protein preparations, free rhodamine-110 was quantitated fluorimetrically. Measured fluorescence intensity (RFU) for each preparation was 807 for hCaspase-12, 445 for ΔCARD, and 31 for the control.

procaspase-3 = test: Proteolytic activity using procaspase-3 substrate (Western blot); format: biochemical; conditions: partially purified preparation, 2 hours at 37° C.; antibody to full-length caspase-3
Experimental: Lysates which contain recombinant caspases produced by expression in E. coli often contain fragments indicative of autoprocessing. Because the autolysis in caspase-12 lysates observed in Example 3B above is indicative of enzymatic activity, the enzymatic activity of partially purified human caspase-12 lysates was evaluated using procaspase-3 as a potential substrate. Caspase-3 is an effector caspase, which is cleaved at Asp175 by initiator caspases-8 and -9 to give the mature 19 kDa and 11 kDa subunits of the active enzyme. Processing of procaspase-3 was evaluated by Western blot analysis using an antibody that binds to full-length caspase-3 and another antibody that binds to the larger B subunit and that is specific for activated enzyme.
For use as a substrate for caspase-12, procaspase-3 was immunoprecipitated from SH-EP cell lysates using an antibody to full-length caspase-3 (Upstate Biotechnology, Inc.) and isolated on Protein G-Plus/Protein A agarose (Oncogene Science). […] Caspase-3 processing/activation by caspase-12 was detected by incubating with an anti-caspase-3 antibody (Upstate Biotechnology) which recognizes all subunits of caspase-3. Following incubation with an anti-rabbit HRP-conjugated antibody (Santa Cruz Biotechnology), immunoreactivity was detected by chemiluminescence using SuperSignal West PICO reagent (Pierce). […]

calpain II = target: T1, calpain II (Homo sapiens, UniProt P17655); test: Calpain II cleavage of human caspase-12 in vitro (Western blot); format: biochemical; conditions: affinity-purified protein, 0.012 U/μl calpain II activated by 5 mM CaCl2
T1 construct: purchased Calbiochem
T1 sequence (P17655 1-700): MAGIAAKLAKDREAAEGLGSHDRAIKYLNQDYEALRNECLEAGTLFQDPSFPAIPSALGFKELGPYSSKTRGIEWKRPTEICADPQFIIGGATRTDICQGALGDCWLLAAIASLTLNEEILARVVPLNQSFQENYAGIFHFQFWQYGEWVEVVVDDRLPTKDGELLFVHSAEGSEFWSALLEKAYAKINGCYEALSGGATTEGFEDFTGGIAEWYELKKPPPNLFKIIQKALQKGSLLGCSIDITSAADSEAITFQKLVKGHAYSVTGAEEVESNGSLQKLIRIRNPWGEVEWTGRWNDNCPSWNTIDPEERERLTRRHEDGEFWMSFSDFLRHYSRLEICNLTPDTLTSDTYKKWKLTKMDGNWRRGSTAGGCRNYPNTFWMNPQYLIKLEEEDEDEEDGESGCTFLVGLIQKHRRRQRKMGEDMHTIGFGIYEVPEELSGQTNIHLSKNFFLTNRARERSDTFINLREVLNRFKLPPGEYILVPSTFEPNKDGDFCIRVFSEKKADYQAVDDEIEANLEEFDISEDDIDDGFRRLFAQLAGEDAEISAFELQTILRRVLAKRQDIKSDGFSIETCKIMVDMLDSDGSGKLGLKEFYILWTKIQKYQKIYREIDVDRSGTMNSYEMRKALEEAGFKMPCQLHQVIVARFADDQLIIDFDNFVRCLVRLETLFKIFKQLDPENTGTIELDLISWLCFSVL
T1 sequence (P04632 1-268 partner): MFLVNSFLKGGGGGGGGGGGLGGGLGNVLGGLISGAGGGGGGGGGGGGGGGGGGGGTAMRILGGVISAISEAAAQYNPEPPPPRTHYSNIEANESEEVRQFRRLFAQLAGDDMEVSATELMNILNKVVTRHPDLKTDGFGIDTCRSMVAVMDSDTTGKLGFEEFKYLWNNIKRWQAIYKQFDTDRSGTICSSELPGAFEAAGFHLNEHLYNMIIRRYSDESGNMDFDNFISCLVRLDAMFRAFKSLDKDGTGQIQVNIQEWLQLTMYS
Experimental: The relationship between calpain and caspase-12 was explored in vitro as follows. Affinity-purified hCaspase-12 and ΔCARD caspase-12 prepared as described in Example 3B above, were incubated with 0.012 U/μl calpain II (Calbiochem) in solutions containing 150 mM NaCl, 20 mM Tris-HCl, pH 7.5, and 1 mM DTT. Calpain II was activated by the addition of 5 mM CaCl2, while corresponding control cultures were not activated by addition of calcium. Cleavage of human caspase-12 was evaluated by Western blot analysis as described in Example 8A above. […] Thus, the activation and processing of caspase-12 is closely tied to cellular calcium levels. It is anticipated that calpain will process caspase-12 by recognizing the cleavage site “ASADT” at positions 269-272 of hCaspase-12 (SEQ ID NO: 77), with cleavage occurring between residues 271 and 272. Because cellular calcium is an important regulatory feature in health and disease, the signaling pathway to caspase-12 may have multiple branches that can result in activation of this caspase.

SH-EP cells = test: Cleavage of exogenous hCaspase-12 in transfected SH-EP cells after αFas-antibody induction of the extrinsic cell death pathway (Western blot); format: cell-based; conditions: 250 ng/ml αFas-antibody for 18 hours
Experimental: The role of hCaspase-12 in cell death pathways was examined using cells of a neuroblastoma cell line, SH-EP. In the extrinsic (or receptor-induced) cell death pathway, caspase-8 is the apical caspase that cleaves effector caspases such as caspase-3, which cleaves many cellular substrates. Caspase activation, indicated by cleavage of the proform of the enzyme in cell lysates, was evaluated by Western blot analysis.
The expression vector pIRES-hrGFP-1a harboring the hCaspase-12 or RIK-5 gene was transfected into SH-EP cells using Superfect transfection reagent (Qiagen). At 24 hours post-transfection, 250 ng/ml αFas-antibody (CH-11, Upstate Biotechnology) was added and incubated for 18 hours to induce the extrinsic cell death pathway. Culture medium and cells were harvested and lysed in detergent buffer. Cleavage of exogenous hCaspase-12 was evaluated by Western blot analysis using anti-human caspase-12 antibody (prepared against peptide WSHHLEEIFQKVQHSFE as described in Example 4).

Molecule: tunicamycin
- Induction of caspase-12 protein [1]: strong induction
- Induction of GRP 78 (GRP 78): induction

B1: hCaspase-12: non-naturally occurring variant human caspase-12 with Ser-205 to Gly mutation (SEQ ID NO: 77), expressed as 6-His fusion protein (protein, listed as Homo sapiens)
chain: MADEKPSNGVLVHMVKLLIKTFLDGIFDDLMENNVLNTDEIHLIGKCLKFVVSNAENLVDDITETAQIAGKIFREHLWNSKKQLSSALLEIQGAQPSGKLKLCPHAHFHELKTKRADEIYPVMEKERRTCLALNIRNKEFNYLHNRNGSELDLLGMRDLLENLGYSVVIKENLTAQEMETALRQFAAHPEHQSSDSTFLVFMSHGILNGICGTKHWDQEPDVLHDDTIFEIFNNRNCQSLKDKPKVIIMQACRGNGAGIVWFTTDSGKASADTHGRLLQGNICNDAVTKAHVEKDFIAFKSSTPHNVSWRHETNGSVFISQIIYYFREYSWSHHLEEIFQKVQHSFETPNILTQLPTIERLSMTRYFYLFPGN
modifications: 6-His tag
- Measured fluorescence intensity (RFU), free rhodamine-110 (DEVD-R110): 807 RFU
- Processing of procaspase-3 to mature subunits (procaspase-3): lower molecular weight bands indicative of cleaved mature subunits were observed
- Cleavage by calpain II (calpain II): cleaves
- Cleavage of exogenous protein in cultures undergoing apoptosis (SH-EP cells): cleaved

B2: ΔCARD: variant of human caspase-12 missing the CARD domain, with Ser-205 to Gly mutation (SEQ ID NO: 79) (protein, listed as Homo sapiens)
chain: SALLEIQGAQPSGKLKLCPHAHFHELKTKRADEIYPVMEKERRTCLALNIRNKEFNYLHNRNGSELDLLGMRDLLENLGYSVVIKENLTAQEMETALRQFAAHPEHQSSDSTFLVFMSHGILNGICGTKHWDQEPDVLHDDTIFEIFNNRNCQSLKDKPKVIIMQACRGNGAGIVWFTTDSGKASADTHGRLLQGNICNDAVTKAHVEKDFIAFKSSTPHNVSWRHETNGSVFISQIIYYFREYSWSHHLEEIFQKVQHSFETPNILTQLPTIERLSMTRYFYLFPGN
- Measured fluorescence intensity (RFU), free rhodamine-110 (DEVD-R110): 445 RFU
- Processing of procaspase-3 to mature subunits (procaspase-3): lower molecular weight bands indicative of cleaved mature subunits were observed
- Cleavage by calpain II (calpain II): cleaves
- Cleavage of exogenous protein in cultures undergoing apoptosis (SH-EP cells): cleaved
